Measured values reported in patent US9371393B2, “Class I anti-CEA antibodies and uses thereof” (Immunomedics, Inc., priority 2009, dated 2016).

What was measured:
[1] = tested on: MDA-468 adhesion to fibronectin; assay: Adhesion to extracellular matrix proteins assay, MDA-468; type: cell-based, human
Procedure: (§1) Adhesion to extracellular matrix proteins assay—The assay was done using the CYTOMATRIX™ screening kit from CHEMICON® (Kit #ECM205, Temecula, Calif.). The kit contains 96-well plates with strips coated with fibronectin, vitronectin, laminin, collagen-I, or collagen-IV. Subconfluent cell cultures were used for these studies. Cells (1×10^6 cells/mol) were seeded onto coated substrate and incubated at 37° C. for 1 hour in a CO2 incubator in PBS containing Ca^2+/Mg^2+ (200 μL per well). Adherent cells were fixed and stained. The plate was washed to remove unadhered cells and stained with 100 μL per well of MTS (Cell Titer Aq 96, PROMEGA®, Madison, Wis.) for 5 minutes at room temperature. Excess stain was removed with three PBS washes. Solubilization buffer [100 μL of a 50:50 mixture of 0.1 mol/L NaH2PO4 (pH 4.5) and 50% ethanol] was added to each well. Relative attachment was determined using absorbance readings (A540 nm-A570 nm).

[2] = tested on: CaPAN-1 adhesion to fibronectin; assay: Adhesion to extracellular matrix proteins assay, CaPAN-1; type: cell-based, human
Procedure: as §1

[3] = tested on: Moser binding to fibronectin; assay: Adhesion to extracellular matrix proteins assay, Moser; type: cell-based, human
Procedure: as §1

LS174T cells = assay: Collagen-based invasion assay, LS174T; type: cell-based, human; conditions: 10% FBS chemoattractant, 72-hour incubation
Procedure: Collagen-based invasion assay—The assay was done using CHEMICON® Kit (#ECM551, MILLIPORE®, Billerica, Mass.). Tumor cells at 80% confluence and were serum-starved for 18 to 24 hours before the assay was used. Cells were harvested with 5 mol of 2 mmol/L EDTA/PBS per 100-mm dish and incubated at 37° C. for 5 to 15 minutes. Cells were collected into 10 to 20 mol of quenching medium (serum-free DMEM containing 5% BSA) to inactivate trypsin/EDTA from the harvesting buffer. Cells were pelleted, resuspended in quenching medium (1×10^6 cells/mol), and appropriate antibody Fabs were added to individual cell aliquots. Cell invasion potential was determined as follows. Baseline invasion and invasion in the presence of a chemoattractant (10% FBS) were measured after a 72-hour incubation period at 37° C. in a 5% CO2 incubator. The bottom side of the collagen-coated polycarbonate membrane insert of the invasion chamber was placed in 400 μL of cell stain for 20 minutes at room temperature and washed. The dye was extracted and transferred into a 96-well microtiter plate for colorimetric measurements (A560 nm).

[4] = tested on: GW-39 human colonic carcinoma; assay: GW-39 intrapulmonary micrometastasis model (GW-39iv), survival; type: in vivo, nude mice; conditions: cells pretreated with Fab′ 10 μg/mol, 100 μg i.v. 1 day after implantation; untreated 42 days
Procedure: FIG. 7 illustrates an exemplary in vivo micrometastasis study. Top, immunohistochemistry of GW-39 tumor sections stained with a nonspecific antibody (left), MN-14 anti-CEACAM5 (middle), and MN-15 anti-CEACAM6 (right) and photographed at 100×. Bottom, survival of nude mice implanted with 30 μL of a 10% suspension of GW-39 human colonic cancer cells. Mice were implanted with cells that were […] for 30 minutes with MN-3-, MN-15-, or hMN-14-Fab′ (10 μg/mol). Mice also received a single 100 μg dose of the same Fab′ 1 day after cell implantation.
In vivo therapy studies—Female athymic nude mice (6 to 8 weeks old) were purchased from TACONIC® (Germantown, N.Y.). Therapy studies were done using our CEACAM5+/CEACAM6+GW-39 intrapulmonary micrometastasis model, GW-39iv (Sharkey et al., J Natl Cancer Inst 1991, 83:627-32; Blumenthal et al., Cancer Res 1992, 52:6036-44). The GW-39 human colonic carcinoma has been maintained as a serially transplanted signet-ring cell cancer line since 1966 (Goldenberg et al., Transplantation 1966, 4:760-4). […] Body weight was monitored weekly and animal survival recorded. Results were analyzed by the Kaplan-Meier estimated survival curves, and significance was determined with the log-rank comparison of survival curves. Median survival time for each treatment group also was determined. […]

B1: MN-15: murine Class I anti-CEA MAb, IgG1 kappa, binds A1B1 domain of CEACAM5 and CEACAM6 (antibody, V domains shown)
VL: DIQLTQSPAIMSASPGEKVTMTCSASSRVSYIHWYQQKSGTSPKRWIYGTSTLASGVPARFSGSGSGTSYSLTISSMEAEDAATYYCQQWSYNPPTFGAGTKLELKR
VH: EVRLVESGGGLVQGPGSLRLSCAASGFALTDYYMSWVRQSPGKTLEWLGFIANKANGHTTDYSPSVKGRFTISRDNSQTILYLQMNTLRTEDSATYYCARDMGIRWNFDVWGQGTTVTVSS
decrease of adhesion to fibronectin [1]: 51% | decrease of adhesion to fibronectin [2]: 47% | effect on binding to fibronectin [3]: not affecting the binding

B2: MN-15 Fab′: monovalent Fab′ fragment of murine MN-15 (antibody, V domains shown)
VL: DIQLTQSPAIMSASPGEKVTMTCSASSRVSYIHWYQQKSGTSPKRWIYGTSTLASGVPARFSGSGSGTSYSLTISSMEAEDAATYYCQQWSYNPPTFGAGTKLELKR
VH: EVRLVESGGGLVQGPGSLRLSCAASGFALTDYYMSWVRQSPGKTLEWLGFIANKANGHTTDYSPSVKGRFTISRDNSQTILYLQMNTLRTEDSATYYCARDMGIRWNFDVWGQGTTVTVSS
reduction in cell invasion (LS174T cells): 30% | median survival time [4]: > 77 days
